{"source": "patent US11878044B2", "about": "“Combination therapy for ischemia” (NoNO Inc., priority 2011, dated 2024)", "origin": "cited, not measured here", "target": "binding of NMDAR 2B to PSD-95 (Homo sapiens, UniProt P78352)", "sequence (P78352 whole entry)": "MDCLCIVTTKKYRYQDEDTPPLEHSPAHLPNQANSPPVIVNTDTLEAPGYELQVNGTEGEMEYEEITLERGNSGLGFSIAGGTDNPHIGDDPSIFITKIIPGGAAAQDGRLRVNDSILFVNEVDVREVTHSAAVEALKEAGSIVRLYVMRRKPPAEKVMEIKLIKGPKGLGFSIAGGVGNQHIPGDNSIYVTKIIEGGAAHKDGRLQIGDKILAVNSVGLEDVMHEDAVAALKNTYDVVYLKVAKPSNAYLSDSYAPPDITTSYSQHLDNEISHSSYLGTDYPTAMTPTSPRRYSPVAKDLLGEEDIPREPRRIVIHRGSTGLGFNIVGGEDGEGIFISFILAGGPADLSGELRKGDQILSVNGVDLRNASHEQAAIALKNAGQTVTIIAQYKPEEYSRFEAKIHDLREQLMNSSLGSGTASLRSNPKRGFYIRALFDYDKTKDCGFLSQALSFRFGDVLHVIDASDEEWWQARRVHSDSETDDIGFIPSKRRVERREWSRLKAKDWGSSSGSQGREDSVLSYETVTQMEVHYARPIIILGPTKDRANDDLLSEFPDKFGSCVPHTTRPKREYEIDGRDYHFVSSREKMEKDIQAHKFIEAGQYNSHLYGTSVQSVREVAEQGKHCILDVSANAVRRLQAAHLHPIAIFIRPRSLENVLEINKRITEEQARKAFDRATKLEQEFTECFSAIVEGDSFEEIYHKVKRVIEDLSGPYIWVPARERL", "settings": "reported by Bach", "data": [{"substance": "IESDV", "values": [{"measurement": "inhibiting binding of NMDAR 2B to PSD-95", "result": "effective in inhibiting binding of NMDAR 2B to PSD-95"}]}]}
